In publication PMC6526471:

Biological target: Patched (Ptc) receptor on C3H10T1/2 cells (mouse (endogenous in C3H10T1/2)) (UniProt Q61115)
UniProt Q61115, sequence (Q61115 whole entry): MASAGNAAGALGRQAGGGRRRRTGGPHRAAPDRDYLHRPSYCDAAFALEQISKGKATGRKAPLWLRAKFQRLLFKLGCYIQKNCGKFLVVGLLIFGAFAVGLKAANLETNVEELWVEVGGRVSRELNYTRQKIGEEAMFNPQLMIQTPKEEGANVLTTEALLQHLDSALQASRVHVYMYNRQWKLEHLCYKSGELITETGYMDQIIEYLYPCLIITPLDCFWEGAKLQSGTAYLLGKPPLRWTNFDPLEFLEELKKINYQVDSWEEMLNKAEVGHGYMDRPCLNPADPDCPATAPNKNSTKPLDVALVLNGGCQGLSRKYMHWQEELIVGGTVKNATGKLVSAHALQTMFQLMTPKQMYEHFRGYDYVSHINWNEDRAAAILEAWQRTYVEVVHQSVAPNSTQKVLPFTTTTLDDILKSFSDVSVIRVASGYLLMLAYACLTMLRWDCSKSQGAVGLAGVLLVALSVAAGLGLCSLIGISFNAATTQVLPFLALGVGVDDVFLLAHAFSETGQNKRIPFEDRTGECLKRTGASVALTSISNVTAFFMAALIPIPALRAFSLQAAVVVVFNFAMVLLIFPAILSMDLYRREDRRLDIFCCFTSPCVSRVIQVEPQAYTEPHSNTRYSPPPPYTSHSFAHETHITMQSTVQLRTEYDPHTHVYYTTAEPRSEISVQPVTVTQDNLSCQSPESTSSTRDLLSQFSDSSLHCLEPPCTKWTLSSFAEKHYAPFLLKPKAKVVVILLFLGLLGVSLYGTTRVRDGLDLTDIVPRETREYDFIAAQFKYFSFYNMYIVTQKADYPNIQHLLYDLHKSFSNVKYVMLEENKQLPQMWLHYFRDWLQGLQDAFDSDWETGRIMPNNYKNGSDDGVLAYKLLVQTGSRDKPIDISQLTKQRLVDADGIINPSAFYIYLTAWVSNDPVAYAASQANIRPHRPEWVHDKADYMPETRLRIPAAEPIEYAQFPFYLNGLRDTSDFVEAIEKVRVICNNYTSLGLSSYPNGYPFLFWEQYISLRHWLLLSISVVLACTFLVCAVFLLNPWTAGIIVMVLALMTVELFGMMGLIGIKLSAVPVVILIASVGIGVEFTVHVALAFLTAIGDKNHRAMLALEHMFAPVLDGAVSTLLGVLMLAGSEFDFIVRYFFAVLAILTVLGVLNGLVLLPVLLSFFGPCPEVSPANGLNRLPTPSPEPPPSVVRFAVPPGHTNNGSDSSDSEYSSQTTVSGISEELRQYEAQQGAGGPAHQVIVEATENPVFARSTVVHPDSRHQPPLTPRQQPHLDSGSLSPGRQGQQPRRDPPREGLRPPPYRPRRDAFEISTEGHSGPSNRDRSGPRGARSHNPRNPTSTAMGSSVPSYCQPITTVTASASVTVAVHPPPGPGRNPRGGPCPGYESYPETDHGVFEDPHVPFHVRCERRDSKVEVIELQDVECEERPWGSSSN

Shh-induced C3H10T1/2 differentiation with 5 ug/mL HSI (0.7 sulfates/disaccharide), relative to no HS/heparin (100%): 70% | Shh-induced C3H10T1/2 differentiation with 5 ug/mL HSII (1.2 sulfates/disaccharide), relative to no HS/heparin (100%): 58% | Shh-induced C3H10T1/2 differentiation with 5 ug/mL HSIII (1.4 sulfates/disaccharide), relative to no HS/heparin (100%): 38% | Shh-induced C3H10T1/2 differentiation with 5 ug/mL dp30 heparin, relative to no HS/heparin (100%): 26% | Shh-induced C3H10T1/2 differentiation with 5 ug/mL heparin, relative to no HS/heparin (100%): 27%
Substance: Sonic hedgehog (Shh), soluble form released from Shh-expressing Panc1 cells (ligand)
